Changes are numbered by the printed parent chain. Numbers in names are those of the source.
B1: 41D2HzL4H3 parent sequence displayed on the yeast surface in the form of Fab (Fab, V domains shown)
VH: EVQLVESGGGLVKPGGSLRLSCAASGFTFSNYDMSWVRQAPGKGLEWVSTISGGGSYTYYADSVKGRFTISRDNAKNSLYLQMNSLRAEDTAVYYCVSPYYGMEYWGQGTLVTVSS
VL: DIQLTQSPSFLSASVGDRVTITCKASQDVGTAVAWYQQKPGKAPKLLIYWASTRHTGVPSRFSGSGSGTEFTLTISSLQPEDFATYFCQQYSSYPWTFGGGTKVEIK
B2: 41D2HzL4H3 (antibody, V domains shown)
VH: B1 VH
VL: B1 VL
notes: Humanized antibody; the description mentions human IgG4 S228P and kappa; also called parent antibody; humanized antibody of 41D2-2C3D7
B3: Ab2005Am08 (antibody, V domains shown)
VH: B1 VH with S56R
VL: B1 VL
notes: also called clone YC215H3 as IgG
B4: 1910h3hzL3H4 (antibody, V domains shown)
VH: QVQLVQSGAEVKKPGASVKVSCKASGFTFIDYEMHWVRQAPGQGLEWIGGIHPGSGGTAYNQKFKGRATLTADISISTAYMELSRLRSDDTAVYYCTREGFDVGWYFDVWGQGTTVTVSS
VL: DVVMTQSPLSLPVTLGQPASISCRSSQSIVHSDGDTFLEWYQQRPGQSPRLLIYKVSNRFSGVPDRFSGSGSGTDFTLKISRVEAEDVGVYYCFQGSHVPYTFGQGTKLEIK
notes: Humanized antibody; the description mentions human IgG4 S228P and kappa; also called humanized antibody of 46H3A8; 1910h3hzL3 light chain + 1910h3hzH4 heavy chain

Key:
[1] = target: biotin-labeled monkey PD-1 (Acro, Catalog Number: PD1-C82E6) (monkey (cyno)) (UniProt B0LAJ3); test: flow cytometry, yeast-displayed Fab, titration of soluble PD-1
[2] = target: biotin-labeled human PD-1 (Acro, Catalog Number: PD1-H82E4) (human) (UniProt Q15116); test: as above
[3] = target: T1, human PD-1 (Acro, Catalog Number: PD-1-H5221) (human, UniProt Q15116 25-167); test: BLI, Octet RED96e, antibody on AHC sensor, PD-1 100 nM
T1 construct: Bought protein

[4] = target: T2, monkey PD-1 (Acro, Catalog Number: PD-1-C5223) (monkey, UniProt B0LAJ3 25-170); test: as above
T2 construct: Bought protein; not shown: any purification tag of the vendor's construct (Acro PD-1-C5223)

[5] = target: T3, human PD-1 (Sino Biological, Catalog Number: 10377-H08H) (human, UniProt Q15116 25-167); test: BLI, Octet RED96e
T3 construct: Bought protein

[6] = target: T3, human PD-1 (Sino Biological, Catalog …); test: BLI, Octet RED96e, antibody on AHC sensor, PD-1 100 nM
[7] = target: T2, monkey PD-1 (Acro, Catalog Number: …); test: BLI, Octet RED96e
[8] = target: T1, human PD-1 (Acro, Catalog Number: …); test: BLI, Octet RED96e

T1 sequence (Q15116 25-167 limits assumed): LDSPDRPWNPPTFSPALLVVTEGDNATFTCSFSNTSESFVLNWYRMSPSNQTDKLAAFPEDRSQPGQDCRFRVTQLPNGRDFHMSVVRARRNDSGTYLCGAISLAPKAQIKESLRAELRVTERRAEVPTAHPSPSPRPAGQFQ
T3 sequence (Q15116 25-167 limits assumed): as above
T2 sequence (B0LAJ3 entry or part of it limits assumed, form in doubt): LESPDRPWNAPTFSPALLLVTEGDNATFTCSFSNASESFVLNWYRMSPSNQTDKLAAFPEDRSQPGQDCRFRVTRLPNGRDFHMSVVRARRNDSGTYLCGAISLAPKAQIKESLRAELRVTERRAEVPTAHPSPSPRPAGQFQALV
Chain of biotin-labeled human PD-1 (Acro, Catalog Number: PD1-H82E4) (human) (Q15116 25-167 limits assumed): as the sequence (Q15116 25-167 limits assumed) above
Chain of biotin-labeled monkey PD-1 (Acro, Catalog Number: PD1-C82E6) (monkey (cyno)) (B0LAJ3 entry or part of it limits assumed): as the sequence (B0LAJ3 entry or part of it limits assumed, form in doubt) above

| Binder | Ag50 [1] | Ag50 [2] | Kd [3] | koff [3] | kon [3] | Kd [4] | koff [4] | kon [4] | fold higher affinity than Pembrolizumab [5] | Kd [6] | koff [6] | kon [6] | fold affinity against the parent antibody [7] | fold affinity against the parent antibody [8] |
| --- | --- | --- | --- | --- | --- | --- | --- | --- | --- | --- | --- | --- | --- | --- |
| B1 | 36.1 nM | 5.08 nM |  |  |  |  |  |  |  |  |  |  |  |  |
| B2 |  |  | 1.27 nM | 0.000589 s⁻¹ | 464000 M⁻¹ s⁻¹ | 5.2 nM | 0.00153 s⁻¹ | 295000 M⁻¹ s⁻¹ | 4.2 times | 1.92 nM | 0.000542 s⁻¹ | 283000 M⁻¹ s⁻¹ |  |  |
| B3 | 2.42 nM | 1.26 nM | 0.504 nM | 0.00023 s⁻¹ | 457000 M⁻¹ s⁻¹ | 1.52 nM | 0.000486 s⁻¹ | 320000 M⁻¹ s⁻¹ |  |  |  |  | ~2 times | ~2 times |
| B4 |  |  |  |  |  |  |  |  |  | 8.04 nM | 0.00118 s⁻¹ | 147000 M⁻¹ s⁻¹ |  |  |

Source: patent publication EP4293046A1 (Shanghai Jemincare Pharmaceuticals Co., Ltd., dated 2023)
